Measured values taken from article PMC4095729 (Alzheimer's Research & Therapy, 2014).

Molecular target: T1, Aβ1-7 peptide (Homo sapiens (deposited entity))
T1 construct: amyloid beta peptide (Aβ), cut from amyloid precursor protein (APP), residues 1-7; Additional file 1 names the peptide Aβ1-6; also called amyloid-β1-7; Aβ residues 1–7
T1 chain: DAEFRHD
Assay: crystal structure; 3D6 Fab co-crystallised with Aβ1-7 or Aβ1-40 peptide, crystals grown at 22 °C; the Aβ1-40 crystals in 200 mM Zn2+; data at 100 K
Settings: both partners purified

B1: Recombinant 3D6 Fab (Fab, V domains shown)
VH: EVKLVESGGGLVKPGASLKLSCAASGFTFSNYGMSWVRQNSDKRLEWVASIRSGGGRTYYSDNVKGRFTISRENAKNTLYLQMSSLKSEDTALYYCVRYDHYSGSSDYWGQGTTVTVSS
VL: not shown
notes: also called Fab 3D6
binding result: binds
